Reference: patent US20130065819A1

Biological target: HIV Tat transcription factor (HIV)
Assay: cell-based or functional assay

**Q.** For “human TOE1 (Target of Egr1) (from UniProt Q96GM8 1-510)”, which decrease in Tat driven transactivation of the HIV LTR/TAR luciferase reporter in HeLa cells is on record?
**A.** Its decrease in Tat driven transactivation of the HIV LTR/TAR luciferase reporter in HeLa cells is 50 to 80%.
